“And” between values parts separate entries of the source, which are not always exact repeats. Equal values may be shown once.
Assay: AEGEAN phase III: adverse events in the safety analysis set (CTCAE v5.0)
Details: for COVID-19: number of patients with event / COVID-19: patients with event: grouped term; for Any immune-mediated event: number of patients / Any immune-mediated event: patients: immune-mediated AE
[1] = all-causality, safety analysis set N = 400
[2] = any cause, Any Grade, safety analysis set N = 400
[3] = any cause, Any Grade, safety analysis set N = 400, listed as durvalumab
[4] = any cause, Max. Grade 3 or 4, safety analysis set N = 400
[5] = immune-mediated AE (grouped term), Any Grade 3 or 4, safety analysis set N = 400
[6] = immune-mediated AE (grouped term), Any Grade, safety analysis set N = 400
[7] = Any Grade 3 or 4, safety analysis set N = 400
[8] = Any Grade, safety analysis set N = 400
[9] = overall study period, safety analysis set N = 400
[10] = overall study period, safety analysis set N = 400, listed as durvalumab
[11] = possibly related to study treatment, Any Grade, safety analysis set N = 400
[12] = possibly related to study treatment, Max. Grade 3 or 4, safety analysis set N = 400

Excerpt: Safety was monitored throughout the study and adverse events (AEs) were graded using the National Cancer Institute Common Toxicity Criteria for AEs version 5.0.

Durvalumab: antibody that selectively binds PD-L1 and blocks binding of PD-L1 to PD-1 and CD80; arm given with platinum-based chemotherapy before surgery
Adverse events leading to cancellation of surgery: number of patients [1]: 7 | Adverse events leading to cancellation of surgery: patients [1]: (1.8) % | Adverse events leading to discontinuation of durvalumab/placebo: number of patients [1]: 48 | Adverse events leading to discontinuation of durvalumab/placebo: patients [1]: (12.0) % | COVID-19: number of patients with event [2]: 44 | COVID-19: patients with event [2]: (11.0) % | Alopecia: number of patients with event [2]: 68 | Alopecia: patients with event [2]: (17.0) % | Anemia: number of patients with event [2]: 136 | Anemia: patients with event [2]: (34.0) % | Asthenia: number of patients with event [2]: 50 | Asthenia: patients with event [2]: (12.5) % | Constipation: number of patients with event [2]: 99 | Constipation: patients with event [2]: (24.8) % | Decreased appetite: number of patients with event [2]: 73 | Decreased appetite: patients with event [2]: (18.3) % | Diarrhea: number of patients with event [2]: 52 | Diarrhea: patients with event [2]: (13.0) % | Fatigue: number of patients with event [2]: 52 | Fatigue: patients with event [2]: (13.0) % | Insomnia: number of patients with event [2]: 41 | Insomnia: patients with event [2]: (10.3) % | Nausea: number of patients with event [2]: 101 | Nausea: patients with event [2]: (25.3) % | Neutropenia: number of patients with event [2]: 68 | Neutropenia: patients with event [2]: (17.0) % | Neutrophil count decreased: number of patients with event [2]: 64 | Neutrophil count decreased: patients with event [2]: (16.0) % | Procedural pain: number of patients with event [2]: 44 | Procedural pain: patients with event [2]: (11.0) % | Pruritis: number of patients with event [2]: 47 | Pruritis: patients with event [2]: (11.8) % | Rash: number of patients with event [2]: 56 | Rash: patients with event [2]: (14.0) % | Vomiting: number of patients with event [2]: 45 | Vomiting: patients with event [2]: (11.3) % | Pruritis: patients with event [3]: 11.8% | Rash: patients with event [3]: 14% | COVID-19: number of patients with event [4]: 1 | COVID-19: patients with event [4]: (0.3) % | Alopecia: number of patients with event [4]: 0 | Anemia: number of patients with event [4]: 26 | Anemia: patients with event [4]: (6.5) % | Asthenia: number of patients with event [4]: 0 | Constipation: number of patients with event [4]: 1 | Constipation: patients with event [4]: (0.3) % | Decreased appetite: number of patients with event [4]: 1 | Decreased appetite: patients with event [4]: (0.3) % | Diarrhea: number of patients with event [4]: 3 | Diarrhea: patients with event [4]: (0.8) % | Fatigue: number of patients with event [4]: 0 | Insomnia: number of patients with event [4]: 0 | Nausea: number of patients with event [4]: 1 | Nausea: patients with event [4]: (0.3) % | Neutropenia: number of patients with event [4]: 36 | Neutropenia: patients with event [4]: (9.0) % | Neutrophil count decreased: number of patients with event [4]: 39 | Neutrophil count decreased: patients with event [4]: (9.8) % | Procedural pain: number of patients with event [4]: 1 | Procedural pain: patients with event [4]: (0.3) % | Pruritis: number of patients with event [4]: 1 | Pruritis: patients with event [4]: (0.3) % | Rash: number of patients with event [4]: 2 | Rash: patients with event [4]: (0.5) % | Vomiting: number of patients with event [4]: 3 | Vomiting: patients with event [4]: (0.8) % | COVID-19 events of max. grade 5: number of patients (any cause, assessed as unrelated to study treatment, safety analysis set, listed as D): 5 | Decreased appetite with an outcome of death (max. grade 5): number of patients (any cause, safety analysis set, listed as D): 1 | Dermatitis/Rash: number of patients [5]: 2 | Dermatitis/Rash: patients [5]: (0.5) % | Diarrhea/Colitis: number of patients [5]: 0 | Hepatic events: number of patients [5]: 8 | Hepatic events: patients [5]: (2.0) % | Hyperthyroid events: number of patients [5]: 0 | Hypothyroid events: number of patients [5]: 0 | Pneumonitis: number of patients [5]: 5 | Pneumonitis: patients [5]: (1.2) % | Dermatitis/Rash: number of patients [6]: 22 | Dermatitis/Rash: patients [6]: (5.5) % | Diarrhea/Colitis: number of patients [6]: 3 | Diarrhea/Colitis: patients [6]: (0.7) % | Hepatic events: number of patients [6]: 13 | Hepatic events: patients [6]: (3.2) % | Hyperthyroid events: number of patients [6]: 7 | Hyperthyroid events: patients [6]: (1.7) % | Hypothyroid events: number of patients [6]: 37 | Hypothyroid events: patients [6]: (9.2) % | Pneumonitis: number of patients [6]: 15 | Pneumonitis: patients [6]: (3.7) % | Pneumonitis: patients (immune-mediated AE (grouped term), Any Grade, safety analysis set N = 400, listed as durvalumab): 3.7% | Any immune-mediated event: number of patients [7]: 17 | Any immune-mediated event: patients [7]: (4.2) % | Any immune-mediated event: patients (Any Grade 3 or 4, safety analysis set N = 400, listed as durvalumab): 4.2% | Any immune-mediated event: number of patients [8]: 95 | Any immune-mediated event: patients [8]: (23.7) % | Any immune-mediated event: patients (Any Grade, safety analysis set N = 400, listed as durvalumab): 23.7% and 23.5% | All-causality adverse events with outcome of death: number of patients [9]: 23 | All-causality adverse events with outcome of death: patients [9]: (5.8) % | All-causality adverse events, maximum grade 3 or 4: number of patients [9]: 169 | All-causality adverse events, maximum grade 3 or 4: patients [9]: (42.3) % | All-causality serious adverse events: number of patients [9]: 150 | All-causality serious adverse events: patients [9]: (37.5) % | Any-grade adverse events possibly related to durvalumab/placebo/chemotherapy: number of patients [9]: 346 | Any-grade adverse events possibly related to durvalumab/placebo/chemotherapy: patients [9]: (86.5) % | Any-grade all-causality adverse events: number of patients [9]: 386 | Any-grade all-causality adverse events: patients [9]: (96.5) % | Possibly related adverse events with outcome of death: number of patients [9]: 7 | Possibly related adverse events with outcome of death: patients [9]: (1.8) % | Possibly related adverse events, maximum grade 3 or 4: number of patients [9]: 129 | Possibly related adverse events, maximum grade 3 or 4: patients [9]: (32.3) % | All-causality adverse events, maximum grade 3 or 4: patients [10]: 42.3% | Any-grade adverse events possibly related to durvalumab/placebo/chemotherapy: patients [10]: 86.5% | Any-grade all-causality adverse events: patients [10]: 96.5% | Possibly related adverse events with outcome of death: patients [10]: 1.8% | Possibly related adverse events, maximum grade 3 or 4: patients [10]: 32.3% | Alanine aminotransferase increased: number of patients with event [11]: 30 | Alanine aminotransferase increased: patients with event [11]: (7.5) % | Alopecia: number of patients with event [11]: 66 | Alopecia: patients with event [11]: (16.5) % | Anemia: number of patients with event [11]: 104 | Anemia: patients with event [11]: (26.0) % | Arthralgia: number of patients with event [11]: 21 | Arthralgia: patients with event [11]: (5.3) % | Asthenia: number of patients with event [11]: 34 | Asthenia: patients with event [11]: (8.5) % | Constipation: number of patients with event [11]: 44 | Constipation: patients with event [11]: (11.0) % | Decreased appetite: number of patients with event [11]: 49 | Decreased appetite: patients with event [11]: (12.3) % | Diarrhea: number of patients with event [11]: 34 | Diarrhea: patients with event [11]: (8.5) % | Fatigue: number of patients with event [11]: 42 | Fatigue: patients with event [11]: (10.5) % | Hypothyroidism: number of patients with event [11]: 37 | Hypothyroidism: patients with event [11]: (9.3) % | Leukopenia: number of patients with event [11]: 33 | Leukopenia: patients with event [11]: (8.3) % | Nausea: number of patients with event [11]: 84 | Nausea: patients with event [11]: (21.0) % | Neutropenia: number of patients with event [11]: 60 | Neutropenia: patients with event [11]: (15.0) % | Neutrophil count decreased: number of patients with event [11]: 61 | Neutrophil count decreased: patients with event [11]: (15.3) % | Platelet count decreased: number of patients with event [11]: 29 | Platelet count decreased: patients with event [11]: (7.3) % | Pruritis: number of patients with event [11]: 33 | Pruritis: patients with event [11]: (8.3) % | Rash: number of patients with event [11]: 37 | Rash: patients with event [11]: (9.3) % | Thrombocytopenia: number of patients with event [11]: 24 | Thrombocytopenia: patients with event [11]: (6.0) % | Vomiting: number of patients with event [11]: 31 | Vomiting: patients with event [11]: (7.8) % | White blood cell count decreased: number of patients with event [11]: 25 | White blood cell count decreased: patients with event [11]: (6.3) % | Alanine aminotransferase increased: number of patients with event [12]: 2 | Alanine aminotransferase increased: patients with event [12]: (0.5) % | Alopecia: number of patients with event [12]: 0 | Anemia: number of patients with event [12]: 17 | Anemia: patients with event [12]: (4.3) % | Arthralgia: number of patients with event [12]: 1 | Arthralgia: patients with event [12]: (0.3) % | Asthenia: number of patients with event [12]: 0 | Constipation: number of patients with event [12]: 0 | Decreased appetite: number of patients with event [12]: 0 | Diarrhea: number of patients with event [12]: 3 | Diarrhea: patients with event [12]: (0.8) % | Fatigue: number of patients with event [12]: 0 | Hypothyroidism: number of patients with event [12]: 0 | Leukopenia: number of patients with event [12]: 9 | Leukopenia: patients with event [12]: (2.3) % | Nausea: number of patients with event [12]: 1 | Nausea: patients with event [12]: (0.3) % | Neutropenia: number of patients with event [12]: 36 | Neutropenia: patients with event [12]: (9.0) % | Neutrophil count decreased: number of patients with event [12]: 38 | Neutrophil count decreased: patients with event [12]: (9.5) % | Platelet count decreased: number of patients with event [12]: 7 | Platelet count decreased: patients with event [12]: (1.8) % | Pruritis: number of patients with event [12]: 1 | Pruritis: patients with event [12]: (0.3) % | Rash: number of patients with event [12]: 2 | Rash: patients with event [12]: (0.5) % | Thrombocytopenia: number of patients with event [12]: 6 | Thrombocytopenia: patients with event [12]: (1.5) % | Vomiting: number of patients with event [12]: 3 | Vomiting: patients with event [12]: (0.8) % | White blood cell count decreased: number of patients with event [12]: 8 | White blood cell count decreased: patients with event [12]: (2.0) %

Reference: patent US20260284189A1, “TREATMENT OF NON-SMALL CELL LUNG CANCER” (ASTRAZENECA AB, priority 2023, published 2026)
